Measured values published in patent publication US7572434B2, “Method for assessing the effect of a drug on long term memory formation” (Cold Spring Harbor Laboratory, priority 1994, dated 2009).

T1: dCREB2-a (UniProt Q9VWW0)
T1 sequence: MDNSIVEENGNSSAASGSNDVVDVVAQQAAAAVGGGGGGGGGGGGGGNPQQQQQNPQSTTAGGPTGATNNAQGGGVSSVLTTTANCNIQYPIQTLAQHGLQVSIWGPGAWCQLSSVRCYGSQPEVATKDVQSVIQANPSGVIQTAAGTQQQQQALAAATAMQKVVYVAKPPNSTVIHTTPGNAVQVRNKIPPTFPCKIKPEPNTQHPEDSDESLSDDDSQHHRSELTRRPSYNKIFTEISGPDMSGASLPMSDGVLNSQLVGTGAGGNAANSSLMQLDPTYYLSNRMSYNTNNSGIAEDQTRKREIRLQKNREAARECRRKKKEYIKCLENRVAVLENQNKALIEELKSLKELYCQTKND

B1: dCREB2-b: Drosophila dCREB2 isoform lacking exons 2 and 6, antagonist of dCREB2-a, expressed from RSV-dCREB2-b (protein)
chain: MDNSIVEENGNSSAASGSNDVVDVVAQQAAAAVGGGGGGGGGGGGGNPQQQQQNPQSTTAGGPTGATNNAQGGGVSSVLTTTANCNIQYPIQTLAQHGLQVQSVIQANPSGVIQTAAGTQQQQQALAAATAMQKVVYVAKPPNSTVIHTTPGNAVQIPPTFPCKIKPEPNTQHPEDSDESLSDDDSQHHRSELTRRPSYNKIFTEISGPDMSDNSGIAEDQTRKREIRLQKNREAARECRRKKKEYIKCLENRVAVLENQNKALIEELKSLKELYCQTKND
B2: mLZ-dCREB2-b: leucine-zipper mutant of dCREB2-b; middle two leucines converted to valines (protein)
chain: MDNSIVEENGNSSAASGSNDVVDVVAQQAAAAVGGGGGGGGGGGGGNPQQQQQNPQSTTAGGPTGATNNAQGGGVSSVLTTTANCNIQYPIQTLAQHGLQVQSVIQANPSGVIQTAAGTQQQQQALAAATAMQKVVYVAKPPNSTVIHTTPGNAVQIPPTFPCKIKPEPNTQHPEDSDESLSDDDSQHHRSELTRRPSYNKIFTEISGPDMSDNSGIAEDQTRKREIRLQKNREAARECRRKKKEYIKCLENRVAVVENQNKAVIEELKSLKELYCQTKND

What was measured:
dCREB2-a = target: T1, dCREB2-a; test: cell_activity; details: F9 cells; dCREB2-a plus PKA relative to PKA alone
[1] = system: PKA-responsive transcription (CRE-directed reporter) in F9 cells; test: PKA-responsive transcription from the CRE-containing D(-71) CAT reporter in transiently transfected F9 cells; type: cell-based; details: cotransfected with dCREB2-a, PKA and reporter
Description: Undifferentiated F9 cells were maintained and transfected using the calcium phosphate method as described in Darrow, A. L. et al., “Maintenance and Use of F9 Teratocarcinoma Cells”, In Meth. Enzymol., v. 190 (1990), except that chloroquine was added to […] immediately before transfection and precipitates were washed off ten hours after transfection, at which time the dishes received fresh chloroquine-free medium. Amounts of DNA in transfections were made equivalent by adding RSV-0 where required. Cells were harvested 30 hours after transfection. Extracts were made by three cycles of freeze/thawing, with brief vortexing between cycles. Particulate matter was cleared from extracts by ten minutes of centrifugation in the cold. β-galactosidase assays were performed as described in Miller, J. H., Experiments in Molecular Genetics, Cold Spring Harbor Laboratory, Cold Spring Harbor, N.Y., 1972. CAT assays were performed as described in Sheen, J. Y. and B. Seed, Gene, 67: 271-277 (1988) using aliquots of extract heat-treated at 65° C. for ten minutes and centrifuged for ten minutes to remove debris. Results reported are from three experiments run on different days with at least three dishes per condition within each experiment. Error bars represent standard error of the mean, with error propagation taken into account (Grossman, M. and H. W. Norton, J. Hered., 71: 295-297 (1980)).
F9 cells were transiently transfected with 10 μg of D(−71) CAT plasmid as a CRE-directed reporter. 5 μg of RSV-βgal reporter was included in each dish as a normalization control for transfection efficiency. Different groups received 8 μg of dCREB2-a expression vector and 4 μg of PKA expression vector, separately or in combination. Results are expressed as CAT/Pgal enzyme activity ratios, standardized to values obtained with PKA-transfected dishes. […]
Two different dCREB2 isoforms, dCREB2-a and dCREB2-b, have opposite roles in PKA-responsive transcription. […] CREB-dependent changes in gene expression were measured using a cotransfected construct that has a CRE-containing promoter fused to a reporter gene.

Molecule	activity (dCREB2-a) [fold]	effect on PKA-dependent activation by dCREB2-a [1]
D(-71) CAT rat somatostatin promoter CRE fragment	5.4	
B1		nearly complete block
B2		failed to block
